Holding throughout (assay type): biochemical
Series [1] deals with recombinant Medaka trypsinogen. Nature of the series: Activation of recombinant Medaka trypsinogen, SDS-PAGE. Particulars: 37° C., 15, 30 and 45 min.
In another series the test system is GD4K-βNA. Nature of the series: EP activity and kinetic study with specific substrate GD4K-βNA. As to conditions: substrate GD4K-βna. Here is the method: (A) Active recombinant EP proteases were assayed using a GD4K-βNA (SEQ ID NO: 6) substrate as a substrate. Bovine (Nvg), bovine EP protease available from Novagen; Bovine (Neb), bovine EP protease available from NEB. (B) Active recombinant EP proteases were assayed using various synthetic peptide substrates. (C) Active EP proteases were analyzed by gelatin zymography. (D) Fibronectin (4 μg) was incubated with active EPs (100 ng) at 37° C. for 12 h. (E) Laminin ((10 μg) was incubated with active recombinant EPs (100 ng) at 37° C. for 12 h. (F) Two μg of the control protein containing the D4K site (SEQ ID NO: 1) was incubated with active recombinant EPs (100 ng) at 37° C. for 1 h.
(A) The purity of purified recombinant Medaka EP-1 and EP-2 protease was assessed by SDS-PAGE. Lane 1, Medaka EP fusion protein; lane 2, Medaka EP protease treated with immobilized trypsin; lane 3, Medaka EP protease purified using a resource Q column. (B) The enzyme activities of EP proteases were determined at various pHs using GD4K-βNA (SEQ ID NO: 6) as a substrate. (C) Recombinant Medaka trypsinogen was incubated at 37° C. with EPs for 15, 30 and 45 min. After incubation, samples were analyzed by SDS-PAGE and visualized by CBB staining (upper panel). The relative amount of the active form of Medaka trypsin at each time point were calculated based on the results shown in the upper panel (lower panel). The results are presented as the means (±SD) of three separate experiments.
(§1) EP activity was routinely determined using the specific substrate Gly-Asp-Asp-Asp-Asp-Lys-β-naphthylamide (GD4K-βNA) (SEQ ID NO: 6) (Sigma) according to the method of Mikhailova and Rumsh (Mikhailova et al., FEBS Lett., 442:226-230 (1999)). Enzyme activity for various 4-methylcoumaryl-7-amide (MCA)-containing peptide substrates was determined by the method of Barrett (Barrett et al., J., Biochem. J., 187:909-912 (1980)). For kinetic studies, initial velocities, extrapolated from the plot of product versus time, were transformed into double-reciprocal plots (Lineweaver et al., J. Am. Chem. Soc., 56:658-663 (1934)). The maximum velocities (Vmax) and Km and kcat values were obtained from the intercepts of these plots. For all experiments, the results of at least three separate determinations are shown.

In series [2] the test system is GD4K-βNA and the three MCA-containing substrates. Put plainly: Specific activities of wild-type and mutant EP protease using synthetic peptide substrates (FIG. 3A). Here is the method:
(A) The specific activities of wild-type (EP-1) and mutant EP protease were determined using synthetic peptide substrates. (B) High-molecular-weight (HMW) kininogen (5 μg) was incubated with active EP proteases (100 ng) at 37° C. for 2 h and analyzed by SDS-PAGE. (C) Fibrinogen (10 μg) was incubated with active EP proteases (100 ng) at 37° C. for 12 h and analyzed by SDS-PAGE.
as §1

The next series deals with Pro-Phe-Arg-MCA. Nature of the series: Activity assay of EP proteases and EP-treated hK8 samples with Pro-Phe-Arg-MCA (FIG. 4B middle). Here is the method: (§2) (A) A recombinant fusion protein of Medaka gelatinase A (5 μg) was separately incubated with active EP proteases (100 ng) at 37° C. for 1 h, and analyzed by SDS-PAGE. (B) A recombinant fusion protein of human kallikrein 8 (hK8) (5 μg) was incubated with active EP proteases (100 ng) at 37° C. for 2 h. After incubation, the samples were analyzed by SDS-PAGE (upper panel), or assayed for activity with Pro-Phe-Arg-MCA (middle panel), or Boc-Glu(OBzl)-Ala-Arg-MCA (lower panel). […] The samples were then analyzed by SDS-PAGE/Western blotting using anti-human tPA antibody (upper panel) or anti-His probe antibody (lower panel). The position of sctPA (58- and 61-kDa) detected with the antibodies is shown.
as §1
Next, a 35.5-kDa protein of human kallikrein 8 (hK8) in the same E. coli expression system was synthesized. Digestion with Medaka wild-type and mutant EP proteases generated 31.5-kDa active hK8 by cleaving the D4K sequence (SEQ ID NO: 1) (FIG. 4B, Top). […] The EP protease-treated samples were directly assayed for hK8 activity using Pro-Phe-Arg-MCA, a good synthetic peptide substrate of hK8 (Rajapakse et al., FEBS Lett., 579:6879-6884 (2005)). […] The substrate Boc-Glu(OBzl)-Ala-Arg-MCA, which is slightly cleaved by active hK8, was rapidly hydrolyzed with the samples treated with mammalian, but not Medaka, EP proteases (FIG. 4B, Bottom).

In series [3] the test system is recombinant fusion protein of human kallikrein 8 (hK8). Put plainly: Cleavage of recombinant fusion protein of human kallikrein 8 (hK8). Particulars: 37° C., 2 h, 100 ng EP. Here is the method:
as §2
The effect of Medaka EP serine protease on various fusion proteins containing a D4K-cleavage site (SEQ ID NO: 1) was examined. […]

B1: K63R: Medaka EP-1 protease mutant, substitution K63R (protein)
chain: CGQRQVYNSKENNGVPRVVGGVNAEKGAWPWMVSLHWRGRHGCGASLIGRDWLLTAAHCVYGRNTHLQYWSAVLGLHAQSSMNSQEVQIRQVDRIIINKNYNRRTKEADIAMMHLQQPVNFTEWVLPVCLASEDQHFPAGRRCFIAGWGRDAEGGSLPDILQEAEVPLVDQDECQRLLPEYTFTSSMLCAGYPEGGVDSCQGDSGGPLMCLEDARWTLIGVTSFGVGCGRPERPGAYARVSAFTSWIAETRRSSFSDLD
What is called Km is the substrate concentration at which the rate is half of its maximum. What is called kcat is the maximal rate divided by the concentration of active sites. Regarding B1, the “conversion of recombinant Medaka trypsinogen to active trypsin” value in series [1] is on record as “converted to trypsin as fast as the wild type enzyme”. In the series on GD4K-βNA, the Km stood at 200 µM and the kcat came out at 3.5 s⁻¹. Besides, the “enzyme activity for synthetic peptide substrates compared with the wild-type enzyme” value in series [2] was “reduced enzyme activity for synthetic peptide substrates”. Besides, in the series with Pro-Phe-Arg-MCA, the “enzyme activity of the EP protease itself with Pro-Phe-Arg-MCA” value is “none of the Medaka EP proteases (wild-type EP-1, K63R, E173A, or E193A) showed any significant enzyme activity”.

B2: Porcine: active recombinant enzyme of the porcine EP serine protease domain (Ile800 to His1034) (protein)
chain: IVGGNDSREGAWPWVVALYYNGQLLCGASLVSRDWLVSAAHCVYGRNLEPSKWKAILGLHMTSNLTSPQIVTRLIDEIVINPHYNRRRKDSDIAMMHLEFKVNYTDYIQPICLPEENQVFPPGRICSIAGWGKVIYQGSPADILQEADVPLLSNEKCQQQMPEYNITENMMCAGYEEGGIDSCQGDSGGPLMCLENNRWLLAGVTSFGYQCALPNRPGVYARVPKFTEWIQSFLH
For B2, the “cleavage of hK8 fusion protein” value in series [3] is “extensively degraded the substrate”. In the series on GD4K-βNA, the Km is 400 µM and the kcat was determined as 8.83 s⁻¹. For the same molecule, the “enzyme activity of the EP protease itself with Pro-Phe-Arg-MCA” value with Pro-Phe-Arg-MCA was “considerable enzyme activities were detected”.

Source of the values: patent publication US8013137B2, “Modified enteropeptidase protein” (National University Corporation Hokkaido University, priority 2006, dated 2011).
